Laboratory results published in patent US20210087288A1 (Genentech, published 2021).
Values joined by “and” are separate entries in the source; they are usually repeats but may differ in a detail not shown here. Equal values may be shown once.

Legend:
[1] = target: T1, Cyno TfR extracellular domain (analogous ecd construct) (cynomolgus monkey, UniProt Q5RDH6 87-760 (Pongo abelii entry)); assay: SPR (Biacore), IgG, TfR captured by anti-His
T1 construct: it is not expressly said to be the cyno construct; also called purified cyno TfR
T1 chain: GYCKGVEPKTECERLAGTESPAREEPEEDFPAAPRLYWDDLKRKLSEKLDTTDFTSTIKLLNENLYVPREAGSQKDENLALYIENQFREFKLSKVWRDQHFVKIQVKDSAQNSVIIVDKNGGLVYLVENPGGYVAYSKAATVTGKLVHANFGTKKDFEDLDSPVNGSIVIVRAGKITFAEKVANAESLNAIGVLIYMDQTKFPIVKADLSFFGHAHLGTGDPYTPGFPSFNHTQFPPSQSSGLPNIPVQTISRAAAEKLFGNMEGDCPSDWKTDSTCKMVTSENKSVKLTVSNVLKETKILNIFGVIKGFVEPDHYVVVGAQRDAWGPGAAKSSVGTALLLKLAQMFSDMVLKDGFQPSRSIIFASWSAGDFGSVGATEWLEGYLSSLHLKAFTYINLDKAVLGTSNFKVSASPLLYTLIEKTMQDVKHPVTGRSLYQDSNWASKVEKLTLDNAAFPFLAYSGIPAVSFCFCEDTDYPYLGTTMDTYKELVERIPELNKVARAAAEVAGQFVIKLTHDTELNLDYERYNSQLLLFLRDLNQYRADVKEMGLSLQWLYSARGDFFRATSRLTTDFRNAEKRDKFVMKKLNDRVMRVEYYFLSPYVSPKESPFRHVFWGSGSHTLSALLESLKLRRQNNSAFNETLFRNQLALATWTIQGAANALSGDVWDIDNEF
Experimental: (§1) Antibody affinities were measured using surface plasmon resonance (“SPR”) (Biacore™ GE Healthcare). Anti-His antibody (Qiagen) was coupled onto four different flow cells of a BIACORE™ CM5 sensor chip (Biacore, Inc., Piscataway, N.J.) at between 6000 and 8000 RU. Immobilization was achieved by random coupling through amino groups using a protocol provided by the manufacturer. 10×HBS-P (Biacore, Inc., Piscataway, N.J.) was diluted in water and served as the dilution and running buffer. Purified human or cyno TfR was captured, followed by a 3-fold dilution series of IgG or Fab that was injected at a flow rate of […] using the single cycle kinetics method. Affinity constants were determined using a simple 1:1 Langmuir binding model or using a steady state model when kₒₙ or koff was beyond the detection limit. The equilibrium dissociation constant (KD) was calculated as the ratio of […].
(§2) The affinity of humanized variants for human and cyno TfR was determined by SPR as IgG (FIG. 4E). Selected clones were also analyzed by SPR as Fab to assess monovalent affinity (Table 7). In both cases, the SPR experiments were performed as described above.

[2] = target: T2, Human TfR extracellular domain (ecd) containing an N-terminal His tag (human, UniProt P02786 89-760); assay: SPR, captured His-TfR, Fab analyte
T2 construct: Biotinylated in some ELISAs; also called huTfR; HuTfR
Experimental: as §1, §2

[3] = target: T1, Cyno TfR extracellular domain …; assay: SPR, captured His-TfR, Fab analyte
Experimental: as §1, §2

[4] = target: T1, Cyno TfR extracellular domain …; assay: ratio of KD on cyno TfR to KD on human TfR, SPR
Experimental: as §1, §2

[5] = target: T2, Human TfR extracellular domain (ecd) …; assay: SPR (Biacore), IgG, TfR captured by anti-His
Experimental: as §1, §2

Binder	Kd [1] [nM]	koff [2]	kon [2]	koff [3] [s⁻¹]	kon [3] [M⁻¹ s⁻¹]	Cy/hu ratio [4]	Kd [5] [nM]
hu7A4.v5 (antibody, V domains shown) VH: EVQLVQSGAEVKKPGASVKVSCKASGYTFTDYAMHWVRQAPGQGLEWMGGISTYFGRTNYNQKFKGRVTMTRDTSISTAYMELSRLRSDDTAVYYCARGLSGNYVMDYWGQGTTVTVSS VL: DIVMTQSPDSLAVSLGERATINCRASESVDSYGNSFMHWYQQKPGQPPKLLIYRASNLESGIPDRFSGSGSGTDFTLTISSLQAEDVAVYYCQQSNEGPPTFGQGTKLEIK	1.2						
hu7A4.v8 (antibody, V domains shown) VH: EVQLVQSGAEVKKPGASVKVSCKGSGYTFTDYAMHWVRQAPGQGLEWMGGISTYFGRTNYNQKFKGRVTMTVDTSISTAYMELSRLRSDDTAVYYCARGLSGNYVMDYWGQGTTVTVSS VL: DIVMTQSPDSLAVSLGERATINCRASESVDSYGNSFMHWYQQKPGQPPKLLIYRASNLESGIPDRFSGSGSGTDFTLTISSLQAEDVAVYYCQQSNEGPPTFGQGTKLEIK	12.3						
Hu15G11.HC32A Fab (Fab, V domains shown, Purified Fab; also called Y32A Fab) VH: EVQLVQSGAEVKKPGASVKVSCKASGYTFTSAWMHWVRQAPGQRLEWIGEINPTNGRTNYIEKFKSRATLTVDKSASTAYMELSSLRSEDTAVYYCARGTRAYHYWGQGTMVTVSS VL: DIQMTQSPSSLSASVGDRVTITCRASDNLYSNLAWYQQKPGKSPKLLVYDATNLADGVPSRFSGSGSGTDYTLTISSLQPEDFATYYCQHFWGTPLTFGQGTKVEIK		0.00178 s⁻¹	238000 M⁻¹ s⁻¹	0.00851	177000	6.4	
Hu15G11.HC52A Fab (Fab, V domains shown, Purified Fab; also called N52A Fab) VH: EVQLVQSGAEVKKPGASVKVSCKASGYTFTSYWMHWVRQAPGQRLEWIGEIAPTNGRTNYIEKFKSRATLTVDKSASTAYMELSSLRSEDTAVYYCARGTRAYHYWGQGTMVTVSS VL: DIQMTQSPSSLSASVGDRVTITCRASDNLYSNLAWYQQKPGKSPKLLVYDATNLADGVPSRFSGSGSGTDYTLTISSLQPEDFATYYCQHFWGTPLTFGQGTKVEIK		0.0236 s⁻¹ and 0.0196 s⁻¹	530000 M⁻¹ s⁻¹ and 564000 M⁻¹ s⁻¹	0.0567	487000	2.6	
hu16F6.v2 (antibody, V domains shown) VH: EVQLVESGPGLVKPSETLSLTCTVSGNSITSEYAWNWIRQPPGKGLEWIGYISYSGTTSYNPSLKSRVTISRDTSKNQLSLKLSSVTAADTAVYYCARYGYGNPATRYFDVWGQGTLVTVSS VL: DIQMTQSPSSLSASVGDRVTITCRASKSISKYLAWYQQKPGKAPKLLLYSGSTLQSGVPSRFSGSGSGTDYTLTISSLQPEDFATYYCQQHNEYPWTFGQGTKVEIK	68.1						4.25
